Reference: patent publication US20250011363A1, “OPTIMIZED SHORTENED PEPTIDE THAT BINDS TO ACETYLCHOLINE RECEPTOR, AND USE THEREOF” (SKINMED CO., LTD., priority 2021, published 2025)

What follows are binders tested against acetylcholine receptor (assay: SPR, AchR immobilised on chip, peptide at 10 uM).

| Binder | Binding affinity [RU] | Binding affinity (RU) | SPR binding response [RU] |
| --- | --- | --- | --- |
| RWVSKK [6mer-2-331] | 148 |  |  |
| RRQYKK [6mer-2-332] | 145 |  |  |
| KRFRRK [6mer-2-333] | 139 |  |  |
| KVILRR [6mer-2-334] | 146 |  |  |
| RSYCR [5mer-249] |  | 52 |  |
| KWITK [5mer-549] |  |  | 78 |
| RQFSR [5mer-250] |  | 76 |  |
| RQQSR [5mer-550] |  | 83 |  |
| KRISK [5mer-251] |  | 70 |  |
| RWQYR [5mer-551] |  | 59 |  |
| KQYRK [5mer-252] |  | 53 |  |
| RLYSR [5mer-552] |  | 63 |  |
| RSLYR [5mer-253] |  | 75 |  |
| KLLSR [5mer-553] |  | 72 |  |
| KLLRK [5mer-254] |  | 87 |  |
| RLLSK [5mer-554] |  | 65 |  |
| KQRTR [5mer-255] |  | 82 |  |
| KVQCK [5mer-555] |  | 71 |  |
| RGVCK [5mer-256] |  | 60 |  |
| RVIYK [5mer-556] |  | 52 |  |
| RQFTR [5mer-257] |  | 85 |  |
| KQRRK [5mer-557] |  | 87 |  |
| KRQYK [5mer-258] |  | 84 |  |
| RWRYK [5mer-558] |  | 84 |  |
| RLIRK [5mer-259] |  | 71 |  |
| KQQLK [5mer-559] |  | 81 |  |
| KVYRR [5mer-260] |  | 57 |  |

| Binder | Binding affinity [RU] | Binding affinity (RU) | SPR binding response [RU] |
| --- | --- | --- | --- |
| KWYQR [5mer-560] |  | 59 |  |
| RRVLR [5mer-261] |  | 59 |  |
| KWRCK [5mer-561] |  | 72 |  |
| KSRCR [5mer-262] |  | 59 |  |
| RVRQR [5mer-562] |  | 70 |  |
| KQVTR [5mer-263] |  | 80 |  |
| RLVLK [5mer-563] |  | 60 |  |
| KWYRK [5mer-264] |  | 50 |  |
| RSRYR [5mer-564] |  | 74 |  |
| RWQCR [5mer-265] |  | 77 |  |
| RLVSK [5mer-565] |  | 77 |  |
| KSYQK [5mer-266] |  | 66 |  |
| KQLYK [5mer-566] |  | 78 |  |
| KRLLK [5mer-267] |  | 66 |  |
| RRYCK [5mer-567] |  | 63 |  |
| KRYCK [5mer-268] |  | 54 |  |
| KQITR [5mer-568] |  | 64 |  |
| RLFLR [5mer-269] |  | 85 |  |
| RQQRK [5mer-569] |  | 79 |  |
| RSQQR [5mer-270] |  | 52 |  |
| KLVRR [5mer-570] |  | 56 |  |
| RGRYR [5mer-271] |  | 68 |  |
| RRLTK [5mer-571] |  | 51 |  |
| KGYQR [5mer-272] |  | 83 |  |
| KLRTK [5mer-572] |  | 58 |  |
| RVQSK [5mer-273] |  | 82 |  |
| RSIYR [5mer-573] |  | 84 |  |

| Binder | Binding affinity [RU] | Binding affinity (RU) | SPR binding response [RU] |
| --- | --- | --- | --- |
| RQVRK [5mer-274] |  | 62 |  |
| KGFTR [5mer-574] |  | 59 |  |
| KVYTR [5mer-275] |  | 64 |  |
| KGFYR [5mer-575] |  | 69 |  |
| RSLRR [5mer-276] |  | 70 |  |
| RLFRK [5mer-576] |  | 62 |  |
| RVFTR [5mer-277] |  | 82 |  |
| KLVTK [5mer-577] |  | 77 |  |
| RWQRR [5mer-278] |  | 66 |  |
| KSVLR [5mer-578] |  | 65 |  |
| RVVTK [5mer-279] |  | 56 |  |
| RSLYK [5mer-579] |  | 53 |  |
| KWILK [5mer-280] |  | 53 |  |
| RGYTR [5mer-580] |  | 70 |  |
| RGFLK [5mer-281] |  | 58 |  |
| KGVLR [5mer-581] |  | 65 |  |
| RVLTR [5mer-282] |  | 77 |  |
| RGICK [5mer-582] |  | 82 |  |
| KWVYK [5mer-283] |  | 51 |  |
| KVVYR [5mer-583] |  | 75 |  |
| KQVQR [5mer-284] |  | 52 |  |
| KQIQK [5mer-584] |  | 76 |  |
| KGQLK [5mer-285] |  | 75 |  |
| RSVSK [5mer-585] |  | 74 |  |
| RWFQK [5mer-286] |  | 71 |  |
